Data on one molecule can be found in paper PMC4240464 (The Febs Journal, 2013).

What all share (assay): cell-based or functional assay
The target in test [1] is T1, CCL15 (human, UniProt Q16663).
T1 sequence: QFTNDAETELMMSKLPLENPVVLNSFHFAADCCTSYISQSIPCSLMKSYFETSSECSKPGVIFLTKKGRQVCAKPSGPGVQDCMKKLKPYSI

The target in test [2] is T2, CCL5 (wild type) (human, UniProt P13501 24-91).
T2 sequence: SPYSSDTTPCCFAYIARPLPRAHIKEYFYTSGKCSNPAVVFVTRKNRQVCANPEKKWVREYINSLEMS

Test [3] concerns the target T3, CCL23 (human, UniProt P55773).
T3 sequence: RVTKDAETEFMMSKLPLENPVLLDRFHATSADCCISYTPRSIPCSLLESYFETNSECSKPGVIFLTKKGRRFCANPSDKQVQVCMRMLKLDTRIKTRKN

In test [4] the target is T4, CCL26 (human, UniProt Q9Y258 24-94).
T4 sequence: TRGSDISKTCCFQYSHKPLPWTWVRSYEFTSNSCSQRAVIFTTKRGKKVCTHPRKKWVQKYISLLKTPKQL

Test [5] concerns the target T5, CCL3L1 (human, UniProt P16619 24-93).
T5 sequence: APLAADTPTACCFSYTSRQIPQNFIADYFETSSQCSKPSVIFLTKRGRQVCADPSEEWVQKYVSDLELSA

Test [6] addresses CCL7 (human, UniProt P80098 24-99).
The target in test [7] is T6, CCL22 (human, UniProt O00626 25-93).
T6 sequence: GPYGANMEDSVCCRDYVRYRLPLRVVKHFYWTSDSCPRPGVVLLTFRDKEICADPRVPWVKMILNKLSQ

Test [8] has as its target T7, CCL16 (human, UniProt O15467 24-120).
T7 sequence: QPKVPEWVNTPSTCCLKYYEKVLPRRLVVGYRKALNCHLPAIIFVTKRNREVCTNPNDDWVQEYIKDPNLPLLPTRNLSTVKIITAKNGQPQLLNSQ

The target of test [9] is CCL11 (human, UniProt P51671 24-97).
Sequence of CCL11 (P51671 24-97): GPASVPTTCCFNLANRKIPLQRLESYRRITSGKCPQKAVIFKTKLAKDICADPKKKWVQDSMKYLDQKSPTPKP
Test [10] deals with T8, CCL3 (human, UniProt P10147 24-92).
T8 sequence: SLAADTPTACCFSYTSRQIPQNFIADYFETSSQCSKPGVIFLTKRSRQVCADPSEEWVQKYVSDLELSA

The target of test [11] is T9, CCL8 (human, UniProt P80075 24-99).
T9 sequence: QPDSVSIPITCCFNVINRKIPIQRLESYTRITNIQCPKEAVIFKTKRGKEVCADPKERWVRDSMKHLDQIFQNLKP

Test [12] concerns the target T10, CCL24 (human, UniProt O00175 27-119).
T10 sequence: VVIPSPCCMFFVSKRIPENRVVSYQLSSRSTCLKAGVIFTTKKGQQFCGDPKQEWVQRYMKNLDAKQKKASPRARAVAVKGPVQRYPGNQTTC

In test [13] the target is T11, CCL17 (human, UniProt Q92583 24-94).
T11 sequence: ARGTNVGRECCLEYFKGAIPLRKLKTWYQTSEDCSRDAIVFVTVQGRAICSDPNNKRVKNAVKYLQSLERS

Sequence of CCL7 (P80098 24-99): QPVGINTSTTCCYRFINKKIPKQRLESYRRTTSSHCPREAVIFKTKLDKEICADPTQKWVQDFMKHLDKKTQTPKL

B1: Evasin-4 (untagged recombinant) (natural protein)
chain: EVPQMTSSSAPDLEEEDDYTAYAPLTCYFTNSTLGLLAPPNCSVLCNSTTTWFNETSPNNASCLLTVDFLTQDAILQENQPYNCSVGHCDNGTCAGPPRHAQCW
modifications: appears to be highly glycosylated (six putative N-glycosylation sites)
Turning to B1, in [1], the “IC50, inhibition of chemotaxis of L1.2/CCR3 cells to CCL15 (EC80 100 nM)” value came to 88 nM. In addition, in test [2], the “IC50, inhibition of chemotaxis of 300.19/CCR1 cells to CCL5 (EC80 1 nM)” value stood at 2.2 nM; the “IC50, inhibition of chemotaxis of L1.2/CCR5 cells to CCL5 (EC80 1 nM)” value worked out at 4.8 nM; the “IC50, inhibition of chemotaxis of monocytes to CCL5 (EC80 10 nM)” value is 1.5 nM. Besides, the “IC50, inhibition of chemotaxis of 300.19/CCR1 cells to CCL23 (EC80 10 nM)” value in test [3] turned out to be 2.2 nM. In [4], the “IC50, inhibition of chemotaxis of L1.2/CCR3 cells to CCL26 (EC80 10 nM)” value came to 68 nM and the “IC50, inhibition of chemotaxis of eosinophils to CCL26 (EC80 50 nM)” value was 101 nM. The “IC50, inhibition of chemotaxis of L1.2/CCR5 cells to CCL3L1 (EC80 1 nM)” value in test [5] turned out to be 3.5 nM. In addition, the “IC50, inhibition of chemotaxis of eosinophils to CCL7 (EC80 10 nM)” value in test [6] was determined as 5 nM. Further, the “IC50, inhibition of chemotaxis of L1.2/CCR4 cells to CCL22 (EC80 1 nM)” value in [7] is 38 nM. Besides, the “IC50, inhibition of chemotaxis of 300.19/CCR1 cells to CCL16 (EC80 250 nM)” value in test [8] came out at 304 nM. In test [9], the “IC50, inhibition of chemotaxis of L1.2/CCR3 cells to CCL11 (EC80 1 nM)” value is 14 nM and the “IC50, inhibition of chemotaxis of eosinophils to CCL11 (EC80 1 nM)” value was 4.9 nM. Besides, in [10], the “IC50, inhibition of chemotaxis of 300.19CCR1 cells to CCL3 (EC80 1 nM)” value is 2 nM and the “IC50, inhibition of chemotaxis of L1.2/CCR5 cells to CCL3 (EC80 40 nM)” value was found to be 4.4 nM. Also, in test [11], the “IC50, inhibition of chemotaxis of L1.2/CCR3 cells to CCL8 (EC80 5 nM)” value was determined as 3.6 nM and the “IC50, inhibition of chemotaxis of eosinophils to CCL8 (EC80 10 nM)” value turned out to be 3.1 nM. Besides, the “IC50, inhibition of chemotaxis of L1.2/CCR3 cells to CCL24 (EC80 10 nM)” value in test [12] amounted to 95 nM. The “IC50, inhibition of chemotaxis of L1.2/CCR4 cells to CCL17 (EC80 1 nM)” value in test [13] was found to be 69 nM.
